The test deals with vitreal Sema3A of STZ-treated diabetic mice (endogenous mouse Semaphorin3A) (mouse) (UniProt O08665). Briefly: cell-based or functional assay.

The values that follow come from patent US20180030455A1.

UniProt O08665, sequence (O08665 21-772 limits assumed): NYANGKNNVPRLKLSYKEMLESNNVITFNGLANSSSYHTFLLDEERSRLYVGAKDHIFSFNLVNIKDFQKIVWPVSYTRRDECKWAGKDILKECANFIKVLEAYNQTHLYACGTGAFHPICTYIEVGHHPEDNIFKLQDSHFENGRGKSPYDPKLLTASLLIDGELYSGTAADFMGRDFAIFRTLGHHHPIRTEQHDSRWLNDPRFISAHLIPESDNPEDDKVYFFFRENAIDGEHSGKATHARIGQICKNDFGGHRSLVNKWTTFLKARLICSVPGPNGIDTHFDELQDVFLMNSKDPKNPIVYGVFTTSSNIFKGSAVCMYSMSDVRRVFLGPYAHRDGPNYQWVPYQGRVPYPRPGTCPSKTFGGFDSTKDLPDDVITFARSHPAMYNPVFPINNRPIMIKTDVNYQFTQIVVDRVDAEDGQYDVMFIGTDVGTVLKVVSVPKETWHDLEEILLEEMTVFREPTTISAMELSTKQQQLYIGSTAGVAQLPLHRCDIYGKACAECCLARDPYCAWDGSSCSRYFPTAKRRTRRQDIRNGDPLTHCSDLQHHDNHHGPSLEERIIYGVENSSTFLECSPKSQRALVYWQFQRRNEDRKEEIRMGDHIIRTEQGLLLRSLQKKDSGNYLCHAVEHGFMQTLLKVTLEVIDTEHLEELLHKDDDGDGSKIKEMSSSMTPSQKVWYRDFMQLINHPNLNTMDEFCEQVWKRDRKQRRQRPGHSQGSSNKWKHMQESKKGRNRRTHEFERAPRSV

“recombinant mouse soluble Neuropilin-1 (rmNRP1) (from UniProt P97333 22-856) (receptor)” gave a reduction in retinal permeability (Evans Blue permeation) at week 8 of diabetes, after intravitreal injection of rNrp-1 in STZ mice at weeks 6 and 7 of 48.1%.
